Article PMC2174254
Where two headings read alike, the source gives them in different places. One block for each substance: values may come before it.

What was measured:
Test in all cases: cross-linking
[1] = target: PDI deletion mutant Δ252–277 (S. cerevisiae) (UniProt P17967)
[2] = target: PDI deletion mutant Δ222–302 (S. cerevisiae) (UniProt P17967)
[3] = target: PDI deletion mutant Δ222–302 (S. cerevisiae) (UniProt P17967); remark: listed apart in the source
[4] = target: Protein disulfide isomerase (PDI), wild type, S. cerevisiae (S. cerevisiae) (UniProt P17967)
[5] = target: BiP, heavy chain binding protein (S. cerevisiae (endogenous in yeast microsomes)) (UniProt P16474)
Chain of BiP, heavy chain binding protein (S. cerevisiae (endogenous in yeast microsomes)) (P16474 43-682): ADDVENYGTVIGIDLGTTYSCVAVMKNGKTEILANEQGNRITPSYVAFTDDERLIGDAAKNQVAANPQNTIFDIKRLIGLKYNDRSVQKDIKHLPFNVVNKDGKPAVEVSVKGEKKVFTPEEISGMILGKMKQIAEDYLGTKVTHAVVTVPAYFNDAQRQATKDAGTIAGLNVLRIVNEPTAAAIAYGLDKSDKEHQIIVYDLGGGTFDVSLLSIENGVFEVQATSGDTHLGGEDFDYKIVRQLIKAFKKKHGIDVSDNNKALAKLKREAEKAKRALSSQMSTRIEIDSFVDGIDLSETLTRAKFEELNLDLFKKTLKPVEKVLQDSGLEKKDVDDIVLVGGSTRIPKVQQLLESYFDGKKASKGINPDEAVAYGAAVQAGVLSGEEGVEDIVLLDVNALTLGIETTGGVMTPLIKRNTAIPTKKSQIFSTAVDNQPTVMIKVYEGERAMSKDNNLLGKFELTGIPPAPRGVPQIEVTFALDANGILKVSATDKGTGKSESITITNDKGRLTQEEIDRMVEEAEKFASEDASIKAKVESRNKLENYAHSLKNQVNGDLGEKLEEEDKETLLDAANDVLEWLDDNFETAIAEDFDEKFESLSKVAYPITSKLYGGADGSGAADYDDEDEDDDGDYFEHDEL

- peptide binding, percent of wild-type (% of wild-type) [1]: 38
- peptide binding, percent of wild-type (% of wild-type) [2]: 14
- peptide binding, percent of wild-type (% of wild-type) [3]: 13
Substance: N-benzoyl-NYT-amide, synthetic glycosylation acceptor peptide

- fold lower intensity of the cross-linking product than that with Δgpαf [4]: 8 fold
Substance: gpαf, glycopro-α factor (wild type) (natural protein)

- percent of the Δgpαf in the sample cross-linked to BiP [5]: 10%
- Δgpαf bound to BiP in sec61-32 microsomes relative to wild-type microsomes [5]: 2.1 fold
- Δgpαf bound to BiP in sec61-41 microsomes relative to wild-type microsomes [5]: 1.3 fold
- fold lower affinity than wild-type PDI [1]: 9 fold
- intensity of the cross-linking product, percent of wild-type (% of wild-type) [1]: 24
- fold lower affinity than wild-type PDI [2]: 5 fold
- intensity of the cross-linking product, percent of wild-type (% of wild-type) [2]: 43
- percent of the Δgpαf in the sample cross-linked to PDI [4]: 7%
- stoichiometry N [4]: 1
Substance: Δgpαf, mutant glycosylation site-free pro-α factor (natural protein)
